Article doi:10.1101/2021.10.11.463801, “JIP3 regulates bi-directional organelle transport in neurons through its interaction with dynein and kinesin-1” (bioRxiv, 2021)

T1: mouse JIP3[186-505] (mouse, UniProt Q9ESN9-5 186-505)
T1 construct: mouse JIP3, residues 186-505 (holds the leucine zipper); numbers count on UniProt Q9ESN9-5; also called JIP3[186-505] wild type; source: E. coli (BL21, BL21-CodonPlus-RIL or Rosetta), purified
T1 sequence (looked up): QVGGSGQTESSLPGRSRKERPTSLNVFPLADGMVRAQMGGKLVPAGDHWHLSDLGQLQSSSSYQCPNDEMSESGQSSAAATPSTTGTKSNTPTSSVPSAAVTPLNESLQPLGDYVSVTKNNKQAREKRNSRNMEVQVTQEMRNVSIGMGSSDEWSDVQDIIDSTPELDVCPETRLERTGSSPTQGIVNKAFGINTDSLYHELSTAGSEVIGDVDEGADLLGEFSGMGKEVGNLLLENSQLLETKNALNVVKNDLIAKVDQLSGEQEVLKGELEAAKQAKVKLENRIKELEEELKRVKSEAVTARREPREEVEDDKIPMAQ


How the values were obtained:
[1] = biological target: the molecule itself; assay: AUC; sedimentation velocity, 42'000 rpm, 20 °C; 50 mM HEPES, 100 mM NaCl, 0.5 mM TCEP, pH 7.5; c(S) by SEDFIT
[2] = biological target: T1, mouse JIP3[186-505]; assay: pull-down; GST-tagged bait on glutathione agarose resin; purified recombinant proteins mixed in 50 mM HEPES, 100 mM NaCl, 5 mM DTT, pH 7.5; 1 h at 4 °C; eluted with 15 mM reduced L-glutathione; SDS-PAGE with Coomassie Blue or immunoblot; conditions: both partners purified

Row | binding result [2] | Binder | stoichiometry N [1]
1 | – | JIP3[1-108] (domain or fragment, human, UniProt Q9UPT6-1 1-108, looked up, UniProt Q9UPT6-1; Dimer by AUC; also called JIP3-RH1; RH1 domain of JIP3; source: E. coli (BL21, BL21-CodonPlus-RIL or Rosetta), purified) MMEIQMDEGGGVVVYQDDYCSGSVMSERVSGLAGSIYREFERLIHCYDEEVVKELMPLVVNVLENLDSVLSENQEHEVELELLREDNEQLLTQYEREKALRRQAEEKF | 2
2 | – | JIP3[1-108] V60Q (domain or fragment, human, UniProt Q9UPT6-1 1-108, looked up, human JIP3, residues 1-108 (RH1 domain) with V60Q; UniProt Q9UPT6-1; Dimer by AUC; also called JIP3-RH1 V60Q; source: E. coli (BL21, BL21-CodonPlus-RIL or Rosetta), purified) MMEIQMDEGGGVVVYQDDYCSGSVMSERVSGLAGSIYREFERLIHCYDEEVVKELMPLVQNVLENLDSVLSENQEHEVELELLREDNEQLLTQYEREKALRRQAEEKF | 2
3 | – | JIP4[1-103] (domain or fragment, human, UniProt O60271-1 1-103, looked up, human JIP4, residues 1-103 (RH1 domain); UniProt O60271-1; Dimer by AUC; also called JIP4-RH1; RH1 domain of JIP4; source: E. coli (BL21, BL21-CodonPlus-RIL or Rosetta), purified) MELEDGVVYQEEPGGSGAVMSERVSGLAGSIYREFERLIGRYDEEVVKELMPLVVAVLENLDSVFAQDQEHQVELELLRDDNEQLITQYEREKALRKHAEEKF | 2
4 | binds | GST-tagged KLC1[185-501] (domain or fragment, human, UniProt Q07866-1 185-501, looked up, human kinesin light chain 1 (KLC1), residues 185-501 (TPR domain); UniProt Q07866-1; also called KLC1 fragment; KLC1 TPR domain; source: E. coli (BL21, BL21-CodonPlus-RIL or Rosetta), purified; not shown: GST, N-terminal, kept) DDPGQGIQQQHSSAAAAAQQGGYEIPARLRTLHNLVIQYASQGRYEVAVPLCKQALEDLEKTSGHDHPDVATMLNILALVYRDQNKYKDAANLLNDALAIREKTLGKDHPAVAATLNNLAVLYGKRGKYKEAEPLCKRALEIREKVLGKDHPDVAKQLNNLALLCQNQGKYEEVEYYYQRALEIYQTKLGPDDPNVAKTKNNLASCYLKQGKFKQAETLYKEILTRAHEREFGSVDDENKPIWMHAEEREECKGKQKDGTSFGEYGGWYKACKVDSPTVTTTLKNLGALYRRQGKFEAAETLEEAAMRSRKQGLDNV | –
